Read-outs that look alike come from different tables or passages of the source. Values belong to the binder of their own block, whether it stands above or below them.
Legend:
[1] = molecular target: T1, human FcγRIIa type H extracellular domain with C-terminal His tag (human, UniProt P12318 34-217); experiment: SPR
T1 sequence (looked up): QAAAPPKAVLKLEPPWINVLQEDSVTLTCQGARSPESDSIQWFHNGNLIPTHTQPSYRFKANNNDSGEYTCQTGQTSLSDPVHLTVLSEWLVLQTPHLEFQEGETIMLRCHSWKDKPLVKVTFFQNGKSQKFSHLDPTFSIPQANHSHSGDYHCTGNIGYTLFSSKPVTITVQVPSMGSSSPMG

[2] = molecular target: human FcγRIIIa type V extracellular domain with C-terminal His tag (human, UniProt P08637 17-208); experiment: SPR
Target sequence in this assay (P08637 17-208 F176V): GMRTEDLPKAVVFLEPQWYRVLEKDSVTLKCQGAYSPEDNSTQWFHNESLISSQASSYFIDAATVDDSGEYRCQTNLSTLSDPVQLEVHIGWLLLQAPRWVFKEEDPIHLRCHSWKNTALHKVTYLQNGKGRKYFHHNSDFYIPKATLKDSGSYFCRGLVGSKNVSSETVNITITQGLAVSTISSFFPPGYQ

[3] = molecular target: T2, human FcγRIIb extracellular domain with C-terminal His tag (human, UniProt P31994 43-217); experiment: ratio of SPR KD values
T2 sequence (looked up): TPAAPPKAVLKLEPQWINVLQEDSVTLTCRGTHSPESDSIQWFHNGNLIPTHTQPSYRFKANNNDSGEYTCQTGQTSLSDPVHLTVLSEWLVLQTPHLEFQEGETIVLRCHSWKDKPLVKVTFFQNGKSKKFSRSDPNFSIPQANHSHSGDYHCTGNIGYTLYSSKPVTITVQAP

[4] = molecular target: human FcγRIa extracellular domain with C-terminal His tag (human, UniProt P12314 16-292); experiment: SPR
Chain of human FcγRIa extracellular domain with C-terminal His tag (P12314 16-292): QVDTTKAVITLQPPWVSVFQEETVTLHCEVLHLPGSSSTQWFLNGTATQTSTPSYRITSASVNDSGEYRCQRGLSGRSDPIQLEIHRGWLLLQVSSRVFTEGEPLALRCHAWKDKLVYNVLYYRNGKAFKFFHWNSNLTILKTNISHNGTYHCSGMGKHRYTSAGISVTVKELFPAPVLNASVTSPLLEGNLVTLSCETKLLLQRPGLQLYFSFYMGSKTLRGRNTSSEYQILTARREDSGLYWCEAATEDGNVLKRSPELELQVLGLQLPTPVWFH

[5] = molecular target: T2, human FcγRIIb extracellular domain with …; experiment: SPR
[6] = molecular target: T3, human FcγRIIa type H (131His) extracellular domain with C-terminal His tag (human, UniProt P12318 34-217); experiment: SPR
T3 sequence (looked up): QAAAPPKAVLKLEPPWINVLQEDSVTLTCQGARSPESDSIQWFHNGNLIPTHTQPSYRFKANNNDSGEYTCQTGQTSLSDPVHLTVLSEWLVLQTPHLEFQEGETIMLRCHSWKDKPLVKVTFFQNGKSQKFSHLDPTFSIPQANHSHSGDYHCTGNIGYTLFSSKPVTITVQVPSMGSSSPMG

[7] = molecular target: T4, human FcγRIIa type R (131Arg) extracellular domain with C-terminal His tag (human, UniProt P12318 34-217); experiment: SPR
T4 sequence (looked up): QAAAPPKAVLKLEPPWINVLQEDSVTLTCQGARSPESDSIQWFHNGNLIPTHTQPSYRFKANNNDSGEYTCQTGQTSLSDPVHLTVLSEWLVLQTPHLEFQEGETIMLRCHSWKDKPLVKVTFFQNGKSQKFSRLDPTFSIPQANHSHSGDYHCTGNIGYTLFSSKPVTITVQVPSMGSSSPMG

[8] = molecular target: T4, human FcγRIIa type R (131Arg) …; experiment: ratio of SPR KDs
[9] = molecular target: T5, human FcγRIIIa type V extracellular domain with C-terminal His tag (human, UniProt P08637 17-208); experiment: SPR; remark: listed apart in the source
T5 sequence (P08637 17-208 F176V): as the sequence (P08637 17-208 F176V) above

[10] = molecular target: T6, human FcγRIIa type R extracellular domain with C-terminal His tag (human, UniProt P12318 34-217); experiment: SPR Biacore, kinetic fit
T6 sequence (looked up): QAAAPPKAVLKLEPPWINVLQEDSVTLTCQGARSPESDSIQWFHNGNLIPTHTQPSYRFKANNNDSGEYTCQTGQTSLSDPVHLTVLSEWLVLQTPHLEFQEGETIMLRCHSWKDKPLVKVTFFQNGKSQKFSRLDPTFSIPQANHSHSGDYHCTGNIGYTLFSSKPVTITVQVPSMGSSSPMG

[11] = molecular target: T7, human FcγRIIb extracellular domain with C-terminal His tag (human, UniProt P31994 43-217); experiment: SPR Biacore, ratio of KDs
T7 sequence (looked up): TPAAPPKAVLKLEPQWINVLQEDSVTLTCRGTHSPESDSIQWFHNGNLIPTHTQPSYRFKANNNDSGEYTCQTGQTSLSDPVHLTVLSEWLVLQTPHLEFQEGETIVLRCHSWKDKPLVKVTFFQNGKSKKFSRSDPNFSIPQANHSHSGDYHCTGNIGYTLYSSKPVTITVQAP

[12] = molecular target: T5, human FcγRIIIa type V extracellular …; experiment: SPR; remark: listed apart in the source
[13] = molecular target: T8, human FcγRIIa type H extracellular domain with C-terminal His tag (human, UniProt P12318 34-217); experiment: SPR Biacore, KD by Equation 2
T8 sequence (looked up): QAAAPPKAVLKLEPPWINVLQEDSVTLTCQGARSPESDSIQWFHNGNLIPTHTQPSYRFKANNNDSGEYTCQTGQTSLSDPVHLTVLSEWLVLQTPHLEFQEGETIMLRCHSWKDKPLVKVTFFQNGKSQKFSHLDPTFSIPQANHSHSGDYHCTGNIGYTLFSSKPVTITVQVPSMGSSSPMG

[14] = molecular target: T9, human FcγRIIb extracellular domain with C-terminal His tag (human, UniProt P31994 43-217); experiment: SPR; remark: listed apart in the source
T9 sequence (looked up): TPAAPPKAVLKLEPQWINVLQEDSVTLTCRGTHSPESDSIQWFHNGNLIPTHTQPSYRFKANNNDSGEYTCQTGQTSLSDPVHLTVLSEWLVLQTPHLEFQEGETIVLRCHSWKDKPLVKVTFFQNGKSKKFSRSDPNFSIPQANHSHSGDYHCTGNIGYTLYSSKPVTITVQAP

[15] = molecular target: T9, human FcγRIIb extracellular domain with …; experiment: SPR; remark: listed apart in the source
[16] = molecular target: T9, human FcγRIIb extracellular domain with …; experiment: SPR; remark: listed apart in the source

B1: IL6R-BP199/IL6R-L (antibody, human IgG1, kappa)
heavy: QVQLQESGPGLVKPSETLSLTCAVSGHSISHDHAWSWVRQPPGEGLEWIGFISYSGITNYNPSLQGRVTISRDNSKNTLYLQMNSLRAEDTAVYYCARSLARTTAMDYWGEGTLVTVSSASTKGPSVFPLAPSSKSTSGGTAALGCLVKDYFPEPVTVSWNSGALTSGVHTFPAVLQSSGLYSLSSVVTVPSSSLGTQTYICNVNHKPSNTKVDKKVEPKSCDKTHTCPPCPAPDLLGGDSVFLFPPKPKDTLMISRTPEVTCVVVDVSHEDPEVKFNWYVDGVEVHNAKTKPREEQYNSTYRVVSVLTVLHQDWLNGKEYKCKVSNAALPRPIEKTISKAKGQPREPQVYTLPPSRDELTKNQVSLTCLVKGFYPSDIAVEWESNGQPENNYKTTPPVLDSDGSFFLYSKLTVDKSRWQQGNVFSCSVMHEALHNHYTQESLSLSP
light: not shown
- Kd [1]: 28 µM
- Kd [2]: 61 µM
- KD (IIb) of the parent polypeptide/KD (IIb) of the altered polypeptide [3]: 6.3 fold
- Kd [4]: 0.0064 µM
- Kd [5]: 0.49 µM

B2: IL6R-BP497/IL6R-L (antibody, human IgG1, kappa)
heavy: QVQLQESGPGLVKPSETLSLTCAVSGHSISHDHAWSWVRQPPGEGLEWIGFISYSGITNYNPSLQGRVTISRDNSKNTLYLQMNSLRAEDTAVYYCARSLARTTAMDYWGEGTLVTVSSASTKGPSVFPLAPSSKSTSGGTAALGCLVKDYFPEPVTVSWNSGALTSGVHTFPAVLQSSGLYSLSSVVTVPSSSLGTQTYICNVNHKPSNTKVDKKVEPKSCDKTHTCPPCPAPDLLGDDSVFLFPPKPKDTLMISRTPEVTCVVIDVAEEDGEVKFNWYVDGVEVHNAKTKPREEQYNSTYRVVSVLTVLHQDWLNGKEYKCKVSNKGLPRPIEKTISKAKGQPREPQVYTLPPSRDELTKNQVSLTCLVKGFYPSDIAVEWESNGQPENNYKTTPPVLDSDGSFFLYSKLTVDKSRWQQGNVFSCSVMHEALHNHYTQESLSLSP
light: not shown
- Kd [6]: 0.85 µM
- Kd [7]: 0.035 µM
- KD (IIaR) of parent polypeptide/KD (IIaR) of altered polypeptide [8]: 12.9
- Kd [9]: 20 µM

B4: IL6R-BP253/IL6R-L (antibody, human IgG1, kappa)
heavy: QVQLQESGPGLVKPSETLSLTCAVSGHSISHDHAWSWVRQPPGEGLEWIGFISYSGITNYNPSLQGRVTISRDNSKNTLYLQMNSLRAEDTAVYYCARSLARTTAMDYWGEGTLVTVSSASTKGPSVFPLAPSSKSTSGGTAALGCLVKDYFPEPVTVSWNSGALTSGVHTFPAVLQSSGLYSLSSVVTVPSSSLGTQTYICNVNHKPSNTKVDKKVEPKSCDKTHTCPPCPAPELLGGPSVFLFPPKPKDTLMISRTPEVTCVVVDVEHEDPEVKFNWYVDGVEVHNAKTKPREEQYNSTYRVVSVLTVLHQDWLNGKEYKCKVSNKAFPAPIEKTISKAKGQPREPQVYTLPPSRDELTKNQVSLTCLVKGFYPSDIAVEWESNGQPENNYKTTPPVLDSDGSFFLYSKLTVDKSRWQQGNVFSCSVMHEALHNHYTQESLSLSP
light: not shown
- Kd [12]: 3.8 µM

B7: IL6R-BP119/IL6R-L (antibody, human IgG1, kappa)
heavy: QVQLQESGPGLVKPSETLSLTCAVSGHSISHDHAWSWVRQPPGEGLEWIGFISYSGITNYNPSLQGRVTISRDNSKNTLYLQMNSLRAEDTAVYYCARSLARTTAMDYWGEGTLVTVSSASTKGPSVFPLAPSSKSTSGGTAALGCLVKDYFPEPVTVSWNSGALTSGVHTFPAVLQSSGLYSLSSVVTVPSSSLGTQTYICNVNHKPSNTKVDKKVEPKSCDKTHTCPPCPAPELLGGDSVFLFPPKPKDTLMISRTPEVTCVVVDVSHEDPEVKFNWYVDGVEVHNAKTKPREEQYNSTYRVVSVLTVLHQDWLNGKEYKCKVSNMALPAPIEKTISKAKGQPREPQVYTLPPSRDELTKNQVSLTCLVKGFYPSDIAVEWESNGQPENNYKTTPPVLDSDGSFFLYSKLTVDKSRWQQGNVFSCSVMHEALHNHYTQESLSLSP
light: not shown
- Kd [10]: 0.099 µM
- KD (IIb) of the parent polypeptide/KD (IIb) of the altered polypeptide [11]: 2.7 fold (parent IL6R-B3/IL6R-L)

The next lines start with the values.

- Kd [10]: 5.6 µM
- KD (IIb) of the parent polypeptide/KD (IIb) of the altered polypeptide [11]: 3 fold (parent IL6R-B3/IL6R-L)
B3: IL6R-BP120/IL6R-L (antibody, human IgG1, kappa)
heavy: QVQLQESGPGLVKPSETLSLTCAVSGHSISHDHAWSWVRQPPGEGLEWIGFISYSGITNYNPSLQGRVTISRDNSKNTLYLQMNSLRAEDTAVYYCARSLARTTAMDYWGEGTLVTVSSASTKGPSVFPLAPSSKSTSGGTAALGCLVKDYFPEPVTVSWNSGALTSGVHTFPAVLQSSGLYSLSSVVTVPSSSLGTQTYICNVNHKPSNTKVDKKVEPKSCDKTHTCPPCPAPELLGGDSVFLFPPKPKDTLMISRTPEVTCVVVDVSHEDPEVKFNWYVDGVEVHNAKTKPREEQYNSTYRVVSVLTVLHQDWLNGKEYKCKVSNEALPAPIEKTISKAKGQPREPQVYTLPPSRDELTKNQVSLTCLVKGFYPSDIAVEWESNGQPENNYKTTPPVLDSDGSFFLYSKLTVDKSRWQQGNVFSCSVMHEALHNHYTQESLSLSP
light: not shown

- KD (IIb) of the parent polypeptide/KD (IIb) of the altered polypeptide [11]: 2.9 fold (parent IL6R-B3/IL6R-L)
- Kd [13]: 340 µM
B5: IL6R-2B171/IL6R-L (antibody, human IgG1, kappa)
heavy: QVQLQESGPGLVKPSETLSLTCAVSGHSISHDHAWSWVRQPPGEGLEWIGFISYSGITNYNPSLQGRVTISRDNSKNTLYLQMNSLRAEDTAVYYCARSLARTTAMDYWGEGTLVTVSSASTKGPSVFPLAPSSKSTSGGTAALGCLVKDYFPEPVTVSWNSGALTSGVHTFPAVLQSSGLYSLSSVVTVPSSSLGTQTYICNVNHKPSNTKVDKKVEPKSCDKTHTCPPCPAPELLGGDSVFLFPPKPKDTLMISRTPEVTCVVVDVSHEDPEVKFNWYVDGVEVHNAKTKPREEQYNSTYRVVSVLTVLHQDWLNGKEYKCKLSNKALPAPIEKTISKAKGQPREPQVYTLPPSRDELTKNQVSLTCLVKGFYPSDIAVEWESNGQPENNYKTTPPVLDSDGSFFLYSKLTVDKSRWQQGNVFSCSVMHEALHNHYTQESLSLSP
light: not shown

- KD (IIaH)/KD (IIb) [14]: 566
- KD (IIb) of parent polypeptide/KD (IIb) of altered polypeptide [15]: 507
- KD (IIaR)/KD (IIb) [16]: 30.6
B6: IL6R-BP538/IL6R-L (antibody, human IgG1, kappa)
heavy: QVQLQESGPGLVKPSETLSLTCAVSGHSISHDHAWSWVRQPPGEGLEWIGFISYSGITNYNPSLQGRVTISRDNSKNTLYLQMNSLRAEDTAVYYCARSLARTTAMDYWGEGTLVTVSSASTKGPSVFPLAPSSKSTSGGTAALGCLVKDYFPEPVTVSWNSGALTSGVHTFPAVLQSSGLYSLSSVVTVPSSSLGTQTYICNVNHKPSNTKVDKKVEPKSCDKTHTCPPCPAPELLGDDSVFLFPPKPKDTLMISRTPEVTCVVIDVSEEDGEVKFNWYVDGVEVHNAKTKPREEQYNSTYRVVSVLTVLHQDWLNGKEYKCKVSNKALPRPIEKTISKAKGQPREPQVYTLPPSRDELTKNQVSLTCLVKGFYPSDIAVEWESNGQPENNYKTTPPVLDSDGSFFLYSKLTVDKSRWQQGNVFSCSVMHEALHNHYTQESLSLSP
light: not shown

- KD (IIb) of the parent polypeptide/KD (IIb) of the altered polypeptide [11]: 3.3 fold (parent IL6R-B3/IL6R-L)
- Kd [13]: 32 µM
B8: IL6R-BP107/IL6R-L (antibody, human IgG1, kappa)
heavy: QVQLQESGPGLVKPSETLSLTCAVSGHSISHDHAWSWVRQPPGEGLEWIGFISYSGITNYNPSLQGRVTISRDNSKNTLYLQMNSLRAEDTAVYYCARSLARTTAMDYWGEGTLVTVSSASTKGPSVFPLAPSSKSTSGGTAALGCLVKDYFPEPVTVSWNSGALTSGVHTFPAVLQSSGLYSLSSVVTVPSSSLGTQTYICNVNHKPSNTKVDKKVEPKSCDKTHTCPPCPAPELLGGDSVFLFPPKPKDTLMISRTPEVTCVVVDVSEEDPEVKFNWYVDGVEVHNAKTKPREEQYNSTYRVVSVLTVLHQDWLNGKEYKCKVSNKALPAPIEKTISKAKGQPREPQVYTLPPSRDELTKNQVSLTCLVKGFYPSDIAVEWESNGQPENNYKTTPPVLDSDGSFFLYSKLTVDKSRWQQGNVFSCSVMHEALHNHYTQESLSLSP
light: not shown
